Reference: paper PMC9297866

Columns and labels:
purified protein [1] = substrate: C=C(C)CCO[P@@](=O)(O)OP(=O)(O)O; test: purified protein; conditions: regular coupling; two-substrate reaction with DMAPP
purified protein [2] = substrate: CC(C)=CCOP(=O)(O)OP(=O)(O)O; test: purified protein; conditions: regular coupling; two-substrate reaction with IPP

B1: neryl diphosphate synthase from Solanum lycopersicum (SlNPPS) (Solanum lycopersicum; N88H) (protein)
chain: SLNLQTEKLCYEDNDNDLDEELMPKHIALIMDGHRRWAKDKGLEVYEGHKHIIPKLKEICDISSKLGIQIITAFAFSTENWKRSKEEVDFLLQMFEEIYDEFSRSGVRVSIIGCKSDLPMTLQKCIALTEETTKGNKGLHLVIALNYGGYYDILQATKSIVNKAMNGLLDVEDINKNLFDQELESKCPNPDLLIRTGGEQRVSNFLLWQLAYTEFYFTNTLFPDFGEEDLKEAIMNFQQRHRRFGGHTY
Purified protein [1]
  Km: 457 ± 91 µM
  kcat: 87±15×10^-3 s^-1
Purified protein [2]
  Km: 391 ± 96 µM
  kcat: 87±15×10^-3 s^-1
